{
  "source": "paper doi:10.1101/2025.11.11.687647v1",
  "proteins": {"B1": {"name": "MtPC (Mycobacterium tuberculosis pyruvate carboxylase) (Mycobacterium tuberculosis H37Rv) (protein)", "chain": "MFSKVLVANRGEIAIRAFRAAYELGVGTVAVYPYEDRNSQHRLKADESYQIGDIGHPVHAYLSVDEIVATARRAGADAIYPGYGFLSENPDLAAACAAAGISFVGPSAEVLELAGNKSRAIAAAREAGLPVLMSSAPSASVDELLSVAAGMPFPLFVKAVAGGGGRGMRRVGDIAALPEAIEAASREAESAFGDPTVYLEQAVINPRHIEVQILADNLGDVIHLYERDCSVQRRHQKVIELAPAPHLDAELRYKMCVDAVAFARHIGYSCAGTVEFLLDERGEYVFIEMNPRVQVEHTVTEEITDVDLVASQLRIAAGETLEQLGLRQEDIAPHGAALQCRITTEDPANGFRPDTGRISALRTAGGAGVRLDGSTNLGAEISPYFDSMLVKLTCRGRDLPTAVSRARRAIAEFRIRGVSTNIPFLQAVLDDPDFRAGRVTTSFIDERPQLLTARASADRGTKILNFLADVTVNNPYGSRPSTIYPDDKLPDLDLRAAPPAGSKQRLVKLGPEGFARWLRESAAVGVTDTTFRDAHQSLLATRVRTSGLSRVAPYLARTMPQLLSVECWGGATYDVALRFLKEDPWERLATLRAAMPNICLQMLLRGRNTVGYTPYPEIVTSAFVQEATATGIDIFRIFDALNNIESMRPAIDAVRETGSAIAEVAMCYTGDLTDPGEQLYTLDYYLKLAEQIVDAGAHVLAIKDMAGLLRPPAAQRLVSALRSRFDLPVHLHTHDTPGGQLASYVAAWHAGADAVDGAAAPLAGTTSQPALSSIVAAAAHTEYDTGLSLSAVCALEPYWEALRKVYAPFESGLPGPTGRVYHHEIPGGQLSNLRQQAIALGLGDRFEEIEEAYAGADRVLGRLVKVTPTSKVVGDLALALVGAGVSADEFASDPARFGIPESVLGFLRGELGDPPGGWPEPLRTAALAGRGAARPTAQLAADDEIALSSVGAKRQATLNRLLFPSPTKEFNEHREAYGDTSQLSANQFFYGLRQGEEHRVKLERGVELLIGLEAISEPDERGMRTVMCILNGQLRPVLVRDRSIASAVPAAEKADRGNPGHIAAPFAGVVTVGVCVGERVGAGQTIATIEAMKMEAPITAPVAGTVERVAVSDTAQVEGGDLLVVVS"}},
  "substrate": "CC(=O)C(=O)O",
  "test": "purified protein",
  "conditions": "pH 8.0; 25.0 °C",
  "data": [
    {"protein": "B1", "values": [
      {"measurement": "Km", "value": 2310, "unit": "µM"}
    ]}
  ]
}
